{"source": "the supplement of paper PMC9112550", "about": "“Optimization of the antimicrobial peptide Bac7 by deep mutational scanning” (BMC Biology, 2022);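 further: peptides expressed intracellularly from a pBAD plasmid library in pooled LB shake-flask culture, induced with 0.3% L-arabinose, DNA abundance read by NGS, three biological replicates, DESeq2 with apeglm shrinkage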"}
{"tested_on": "Escherichia coli TOP10", "test": "shrunken log2 fold change of peptide-encoding DNA abundance (4.5 h post-induction vs induction); higher = less antimicrobial activity (less host growth inhibition)", "conditions": "time post-induction: 4.5 h; library: site-saturation at positions 5, 18, 19, 20"}
{"sequence": "RRIRTRPPRLPRPRPRPLDGPRP", "shrunken log2 fold change": 0.0872}
{"sequence": "RRIRTRPPRLPRPRPRPTGCPRP", "shrunken log2 fold change": -0.388}
{"sequence": "RRIRNRPPRLPRPRPRPPFSPRP", "shrunken log2 fold change": 0.032}
{"sequence": "RRIRWRPPRLPRPRPRPHSVPRP", "shrunken log2 fold change": 0.0489}
{"sequence": "RRIRLRPPRLPRPRPRPSENPRP", "shrunken log2 fold change": 0.124}
{"sequence": "RRIRTRPPRLPRPRPRPHQEPRP", "shrunken log2 fold change": -0.163}
{"sequence": "RRIRERPPRLPRPRPRPFNDPRP", "shrunken log2 fold change": -0.0864}
{"sequence": "RRIRVRPPRLPRPRPRPSGPPRP", "shrunken log2 fold change": -0.119}
{"sequence": "RRIRNRPPRLPRPRPRPSACPRP", "shrunken log2 fold change": -0.0258}
{"sequence": "RRIRQRPPRLPRPRPRPVFAPRP", "shrunken log2 fold change": 0.164}
{"sequence": "RRIRTRPPRLPRPRPRPNKEPRP", "shrunken log2 fold change": -0.00295}
{"sequence": "RRIRTRPPRLPRPRPRPAIRPRP", "shrunken log2 fold change": 0.00208}
{"sequence": "RRIRDRPPRLPRPRPRPSWVPRP", "shrunken log2 fold change": -0.211}
{"sequence": "RRIRMRPPRLPRPRPRPYCQPRP", "shrunken log2 fold change": -0.0783}
{"sequence": "RRIRERPPRLPRPRPRPSMCPRP", "shrunken log2 fold change": -0.409}
{"sequence": "RRIRFRPPRLPRPRPRPCKDPRP", "shrunken log2 fold change": -0.198}
{"sequence": "RRIRLRPPRLPRPRPRPPGYPRP", "shrunken log2 fold change": -0.119}
{"sequence": "RRIRVRPPRLPRPRPRPCFFPRP", "shrunken log2 fold change": -0.137}
{"sequence": "RRIRPRPPRLPRPRPRPTKEPRP", "shrunken log2 fold change": 0.193}
{"sequence": "RRIRRRPPRLPRPRPRPTHQPRP", "shrunken log2 fold change": 0.414}
{"sequence": "RRIRFRPPRLPRPRPRPNHEPRP", "shrunken log2 fold change": -0.56}
{"sequence": "RRIRHRPPRLPRPRPRPTYCPRP", "shrunken log2 fold change": -0.129}
{"sequence": "RRIRERPPRLPRPRPRPEDMPRP", "shrunken log2 fold change": -0.0115}
{"sequence": "RRIRWRPPRLPRPRPRPCPCPRP", "shrunken log2 fold change": -0.273}
{"sequence": "RRIRLRPPRLPRPRPRPEMDPRP", "shrunken log2 fold change": -0.059}
{"sequence": "RRIRVRPPRLPRPRPRPASNPRP", "shrunken log2 fold change": -0.0943}
{"sequence": "RRIRMRPPRLPRPRPRPDGAPRP", "shrunken log2 fold change": 2.17}
{"sequence": "RRIRRRPPRLPRPRPRPSAPPRP", "shrunken log2 fold change": 0.418}
{"sequence": "RRIRPRPPRLPRPRPRPEWQPRP", "shrunken log2 fold change": 0.137}
{"sequence": "RRIRERPPRLPRPRPRPQTRPRP", "shrunken log2 fold change": 0.0866}
{"sequence": "RRIRERPPRLPRPRPRPCQMPRP", "shrunken log2 fold change": -0.161}
{"sequence": "RRIRARPPRLPRPRPRPLGDPRP", "shrunken log2 fold change": 0.281}
{"sequence": "RRIRKRPPRLPRPRPRPMCHPRP", "shrunken log2 fold change": -0.0182}
{"sequence": "RRIRPRPPRLPRPRPRPLMTPRP", "shrunken log2 fold change": -0.0836}
{"sequence": "RRIRTRPPRLPRPRPRPDFAPRP", "shrunken log2 fold change": 0.176}
{"sequence": "RRIRRRPPRLPRPRPRPQLEPRP", "shrunken log2 fold change": 0.059}
{"sequence": "RRIRARPPRLPRPRPRPLQEPRP", "shrunken log2 fold change": 0.604}
{"sequence": "RRIRPRPPRLPRPRPRPQGEPRP", "shrunken log2 fold change": 0.208}
{"sequence": "RRIRWRPPRLPRPRPRPYMTPRP", "shrunken log2 fold change": -0.877}
{"sequence": "RRIRPRPPRLPRPRPRPRGVPRP", "shrunken log2 fold change": 0.347}
{"sequence": "RRIRFRPPRLPRPRPRPQGEPRP", "shrunken log2 fold change": 0.00441}
{"sequence": "RRIRERPPRLPRPRPRPHLTPRP", "shrunken log2 fold change": 0.0373}
{"sequence": "RRIRMRPPRLPRPRPRPQDIPRP", "shrunken log2 fold change": -0.0524}
{"sequence": "RRIRWRPPRLPRPRPRPYPAPRP", "shrunken log2 fold change": -0.0239}
{"sequence": "RRIRKRPPRLPRPRPRPHEHPRP", "shrunken log2 fold change": 0.0272}
{"sequence": "RRIRVRPPRLPRPRPRPYVSPRP", "shrunken log2 fold change": -0.084}
{"sequence": "RRIRTRPPRLPRPRPRPNDHPRP", "shrunken log2 fold change": -0.0838}
{"sequence": "RRIRYRPPRLPRPRPRPQWYPRP", "shrunken log2 fold change": -0.118}
{"sequence": "RRIRERPPRLPRPRPRPDPSPRP", "shrunken log2 fold change": 0.0648}
{"sequence": "RRIRARPPRLPRPRPRPYNQPRP", "shrunken log2 fold change": -0.306}
{"sequence": "RRIRNRPPRLPRPRPRPPMYPRP", "shrunken log2 fold change": -0.25}
{"sequence": "RRIRTRPPRLPRPRPRPSNWPRP", "shrunken log2 fold change": -0.281}
{"sequence": "RRIRLRPPRLPRPRPRPAWGPRP", "shrunken log2 fold change": 0.444}
{"sequence": "RRIRTRPPRLPRPRPRPYHVPRP", "shrunken log2 fold change": -0.0196}
{"sequence": "RRIRMRPPRLPRPRPRPIHFPRP", "shrunken log2 fold change": -0.0141}
{"sequence": "RRIRKRPPRLPRPRPRPMIYPRP", "shrunken log2 fold change": -0.718}
{"sequence": "RRIRTRPPRLPRPRPRPGSFPRP", "shrunken log2 fold change": 0.00381}
{"sequence": "RRIRYRPPRLPRPRPRPDPPPRP", "shrunken log2 fold change": 0.0918}
{"sequence": "RRIRFRPPRLPRPRPRPFGQPRP", "shrunken log2 fold change": -0.288}
{"sequence": "RRIRGRPPRLPRPRPRPAMGPRP", "shrunken log2 fold change": 0.541}
{"sequence": "RRIRVRPPRLPRPRPRPADKPRP", "shrunken log2 fold change": -0.0503}
{"sequence": "RRIRNRPPRLPRPRPRPWKRPRP", "shrunken log2 fold change": -0.0326}
{"sequence": "RRIRFRPPRLPRPRPRPRDFPRP", "shrunken log2 fold change": -0.141}
{"sequence": "RRIRFRPPRLPRPRPRPLEHPRP", "shrunken log2 fold change": 0.0403}
{"sequence": "RRIRARPPRLPRPRPRPFGTPRP", "shrunken log2 fold change": -0.194}
{"sequence": "RRIRYRPPRLPRPRPRPSDVPRP", "shrunken log2 fold change": -0.199}
{"sequence": "RRIRIRPPRLPRPRPRPMVQPRP", "shrunken log2 fold change": -0.0334}
{"sequence": "RRIRMRPPRLPRPRPRPMPVPRP", "shrunken log2 fold change": 0.064}
{"sequence": "RRIRWRPPRLPRPRPRPDDKPRP", "shrunken log2 fold change": -0.139}
{"sequence": "RRIRRRPPRLPRPRPRPCMRPRP", "shrunken log2 fold change": 0.264}
{"sequence": "RRIRFRPPRLPRPRPRPWAEPRP", "shrunken log2 fold change": 0.212}
{"sequence": "RRIRDRPPRLPRPRPRPTCTPRP", "shrunken log2 fold change": 0.53}
{"sequence": "RRIRERPPRLPRPRPRPQKFPRP", "shrunken log2 fold change": -0.259}
{"sequence": "RRIRFRPPRLPRPRPRPMCKPRP", "shrunken log2 fold change": -0.169}
{"sequence": "RRIRTRPPRLPRPRPRPMQRPRP", "shrunken log2 fold change": -0.0122}
